# Experimental data from patent US20230051847A1 (Johns Hopkins, published 2023).
# B1: H/K/N RAS Q61H_A1_cl5 (scFv)
# scFv: DIQMTQSPSSLSASVGDRVTITCRASQDVNTAVAWYQQKPGKAPKLLIYSASFLYSGVPSRFSGSRSGTDFTLTISSLQPEDFATYYCQQSSYSPWTFGQGTKVEIKRTGGGSGGGGSGGGASEVQLVESGGGLVQPGGSLRLSCAASGFNISPWDMHWVRQAPGKGLEWVAQLYPSSGYTNYADSVKGRFTISADTSKNTAYLQMNSLRAEDTAVYYCSRSVYWSLDYWGQGTLVTVSS
# B2: H/K/N RAS Q61H_A1_cl8 (scFv)
# scFv: DIQMTQSPSSLSASVGDRVTITCRASQDVNTAVAWYQQKPGKAPKLLIYSASFLYSGVPSRFSGSRSGTDFTLTISSLQPEDFATYYCQQSFSTPITFGQGTKVEIKRTGGGSGGGGSGGGASEVQLVESGGGLVQPGGSLRLSCAASGFNISEYLMHWVRQAPGKGLEWVALLPPGLSYTNYADSVKGRFTISADTSKNTAYLQMNSLRAEDTAVYYCSRYGYYAFDYWGQGTLVTVSS
# B3: H/K/N RAS Q61H_A1_cl9 (scFv)
# scFv: DIQMTQSPSSLSASVGDRVTITCRASQDVNTAVAWYQQKPGKAPKLLIYSASFLYSGVPSRFSGSRSGTDFTLTISSLQPEDFATYYCQQGEYSPLTFGQGTKVEIKRTGGGSGGGGSGGGASEVQLVESGGGLVQPGGSLRLSCAASGFNVFESAMHWVRQAPGKGLEWVAWVYGSYDYTYYADSVKGRFTISADTSKNTAYLQMNSLRAEDTAVYYCSRSFAYFQAMDYWGQGTLVTVSS
# B4: H/R/N RAS Q61R_A1_cl1 (scFv)
# scFv: DIQMTQSPSSLSASVGDRVTITCRASQDVNTAVAWYQQKPGKAPKLLIYSASFLYSGVPSRFSGSRSGTDFTLTISSLQPEDFATYYCQQSYTSPLTFGQGTKVEIKRTGGGSGGGGSGGGASEVQLVESGGGLVQPGGSLRLSCAASGFNIYYGVMHWVRQAPGKGLEWVAMIYPDSSWTYYADSVKGRFTISADTSKNTAYLQMNSLRAEDTAVYYCSRDQDFHYMNYYLSYALDYWGQGTLVTVSS
# notes: also called H/K/N RAS Q61R(55-64)-A1 cl.1
# B5: H/R/N RAS Q61R_A1_cl2 (scFv)
# scFv: DIQMTQSPSSLSASVGDRVTITCRASQDVNTAVAWYQQKPGKAPKLLIYSASFLYSGVPSRFSGSRSGTDFTLTISSLQPEDFATYYCQQYWYYYPITFGQGTKVEIKRTGGGSGGGGSGGGASEVQLVESGGGLVQPGGSLRLSCAASGFNIYSYDMHWVRQAPGKGLEWVAISPGGSYTYYADSVKGRFTISADTSKNTAYLQMNSLRAEDTAVYYCSRSAFTGYFDVWGQGTLVTVSS
# B6: H/R/N RAS Q61R_A1_cl3 (scFv)
# scFv: DIQMTQSPSSLSASVGDRVTITCRASQDVNTAVAWYQQKPGKAPKLLIYSASFLYSGVPSRFSGSRSGTDFTLTISSLQPEDFATYYCQQSYYAPITFGQGTKVEIKRTGGGSGGGGSGGGASEVQLVESGGGLVQPGGSLRLSCAASGFNVQWSHMHWVRQAPGKGLEWVARLSPPSGYTNYADSVKGRFTISADTSKNTAYLQMNSLRAEDTAVYYCSRLILSKGGYGWAMDYWGQGTLVTVSS
# B7: H/R/N RAS Q61R_A1_cl5 (scFv)
# scFv: DIQMTQSPSSLSASVGDRVTITCRASQDVNTAVAWYQQKPGKAPKLLIYSASFLYSGVPSRFSGSRSGTDFTLTISSLQPEDFATYYCQQYYLYQPITFGQGTKVEIKRTGGGSGGGGSGGGASEVQLVESGGGLVQPGGSLRLSCAASGFNIGMYTMHWVRQAPGKGLEWVALVYPDSGYTNYADSVKGRFTISADTSKNTAYLQMNSLRAEDTAVYYCSRYTWQSMDYWGQGTLVTVSS
# B8: H/R/N RAS Q61R_A1_cl7 (scFv)
# scFv: DIQMTQSPSSLSASVGDRVTITCRASQDVNTAVAWYQQKPGKAPKLLIYSASFLYSGVPSRFSGSRSGTDFTLTISSLQPEDFATYYCQQYASDPITFGQGTKVEIKRTGGGSGGGGSGGGASEVQLVESGGGLVQPGGSLRLSCAASGFNLDYGWMHWVRQAPGKGLEWVAWVVPGSDYTDYADSVKGRFTISADTSKNTAYLQMNSLRAEDTAVYYCSRFHYTAFDVWGQGTLVTVSS
# B9: H/R/N RAS Q61R_A1_cl18 (scFv)
# scFv: DIQMTQSPSSLSASVGDRVTITCRASQDVNTAVAWYQQKPGKAPKLLIYSASFLYSGVPSRFSGSRSGTDFTLTISSLQPEDFATYYCQQYIYDPVTFGQGTKVEIKRTGGGSGGGGSGGGASEVQLVESGGGLVQPGGSLRLSCAASGFNVDWAWMHWVRQAPGKGLEWVAWVVGGSDYTYYADSVKGRFTISADTSKNTAYLQMNSLRAEDTAVYYCSRSYYYAFDYWGQGTLVTVSS
# B10: H/R/N RAS Q61R_A1_cl13 (scFv)
# scFv: DIQMTQSPSSLSASVGDRVTITCRASQDVNTAVAWYQQKPGKAPKLLIYSASFLYSGVPSRFSGSRSGTDFTLTISSLQPEDFATYYCQQYSYDPITFGQGTKVEIKRTGGGSGGGGSGGGASEVQLVESGGGLVQPGGSLRLSCAASGFNFSYSAMHWVRQAPGKGLEWVADVVPDGDWTYYADSVKGRFTISADTSKNTAYLQMNSLRAEDTAVYYCSRGWYALDYWGQGTLVTVSS
# B11: H/R/N RAS Q61R_A1_cl19 (scFv)
# scFv: DIQMTQSPSSLSASVGDRVTITCRASQDVNTAVAWYQQKPGKAPKLLIYSASFLYSGVPSRFSGSRSGTDFTLTISSLQPEDFATYYCQQLMYDPITFGQGTKVEIKRTGGGSGGGGSGGGASEVQLVESGGGLVQPGGSLRLSCAASGFNFGTYWMHWVRQAPGKGLEWVAWFLPDYDYTLYADSVKGRFTISADTSKNTAYLQMNSLRAEDTAVYYCSRHGEYAFDYWGQGTLVTVSS
# B12: H/K/N RAS Q61L_A1_cl1 (scFv)
# scFv: DIQMTQSPSSLSASVGDRVTITCRASQDVNTAVAWYQQKPGKAPKLLIYSASFLYSGVPSRFSGSRSGTDFTLTISSLQPEDFATYYCQQASRQPYTFGQGTKVEIKRTGGGSGGGGSGGGASEVQLVESGGGLVQPGGSLRLSCAASGFNFSESGMHWVRQAPGKGLEWVAHFSGDSGYTYYADSVKGRFTISADTSKNTAYLQMNSLRAEDTAVYYCSRYMYYSGYFDYWGQGTLVTVSS
# B13: H/K/N RAS Q61L_A1_cl3 (scFv)
# scFv: DIQMTQSPSSLSASVGDRVTITCRASQDVNTAVAWYQQKPGKAPKLLIYSASFLYSGVPSRFSGSRSGTDFTLTISSLQPEDFATYYCQQTSSYPITFGQGTKVEIKRTGGGSGGGGSGGGASEVQLVESGGGLVQPGGSLRLSCAASGFNIYWYGMHWVRQAPGKGLEWVAQVYPWSGFTYYADSVKGRFTISADTSKNTAYLQMNSLRAEDTAVYYCSRDYYSYSLDYWGQGTLVTVSS
# B14: H/K/N RAS Q61L_A1_cl4 (scFv)
# scFv: DIQMTQSPSSLSASVGDRVTITCRASQDVNTAVAWYQQKPGKAPKLLIYSASFLYSGVPSRFSGSRSGTDFTLTISSLQPEDFATYYCQQSWYSPSTFGQGTKVEIKRTGGGSGGGGSGGGASEVQLVESGGGLVQPGGSLRLSCAASGFNISASGMHWVRQAPGKGLEWVAWIWGGSSYTYYADSVKGRFTISADTSKNTAYLQMNSLRAEDTAVYYCSRGQYLSYMDYWGQGTLVTVSS
# B15: H/K/N RAS Q61L_A1_cl6 (scFv)
# scFv: DIQMTQSPSSLSASVGDRVTITCRASQDVNTAVAWYQQKPGKAPKLLIYSASFLYSGVPSRFSGSRSGTDFTLTISSLQPEDFATYYCQQSYYSPWTFGQGTKVEIKRTGGGSGGGGSGGGASEVQLVESGGGLVQPGGSLRLSCAASGFNISYSNIHWVRQAPGKGLEWVAMIYGTRGGTYYADSVKGRFTISADTSKNTAYLQMNSLRAEDTAVYYCSRYYSYAMDYWGQGTLVTVSS
# B16: H/K/N RAS Q61L_A1_cl7 (scFv)
# scFv: DIQMTQSPSSLSASVGDRVTITCRASQDVNTAVAWYQQKPGKAPKLLIYSASFLYSGVPSRFSGSRSGTDFTLTISSLQPEDFATYYCQQAYYPPWTFGQGTKVEIKRTGGGSGGGGSGGGASEVQLVESGGGLVQPGGSLRLSCAASGFNVSRWAMHWVRQAPGKGLEWVARVYPSGYLTYYADSVKGRFTISADTSKNTAYLQMNSLRAEDTAVYYCSRNMQSYMDYWGQGTLVTVSS
# B17: H/K/N RAS Q61L_A1_cl8 (scFv)
# scFv: DIQMTQSPSSLSASVGDRVTITCRASQDVNTAVAWYQQKPGKAPKLLIYSASFLYSGVPSRFSGSRSGTDFTLTISSLQPEDFATYYCQQSYSSGPVTFGQGTKVEIKRTGGGSGGGGSGGGASEVQLVESGGGLVQPGGSLRLSCAASGFNFSYGGIHWVRQAPGKGLEWVAMIYPLTGYTNYADSVKGRFTISADTSKNTAYLQMNSLRAEDTAVYYCSRDYYYSVDVWGQGTLVTVSS
# B18: H/K/N RAS Q61L_A1_cl9 (scFv)
# scFv: DIQMTQSPSSLSASVGDRVTITCRASQDVNTAVAWYQQKPGKAPKLLIYSASFLYSGVPSRFSGSRSGTDFTLTISSLQPEDFATYYCQQTYYYPFTFGQGTKVEIKRTGGGSGGGGSGGGASEVQLVESGGGLVQPGGSLRLSCAASGFNLYAWGMHWVRQAPGKGLEWVALVYGGWGSTSYADSVKGRFTISADTSKNTAYLQMNSLRAEDTAVYYCSRAGSSKMSAGAFDYWGQGTLVTVSS
# B19: H/K/N RAS Q61L_A1_cl10 (scFv)
# scFv: DIQMTQSPSSLSASVGDRVTITCRASQDVNTAVAWYQQKPGKAPKLLIYSASFLYSGVPSRFSGSRSGTDFTLTISSLQPEDFATYYCQQSYYPYYPWTFGQGTKVEIKRTGGGSGGGGSGGGASEVQLVESGGGLVQPGGSLRLSCAASGFNVSHSAMHWVRQAPGKGLEWVATVHPDWGNTYYADSVKGRFTISADTSKNTAYLQMNSLRAEDTAVYYCSRWQQYYYSFDYWGQGTLVTVSS
# B20: H/K/N RAS Q61L_A1_cl11 (scFv)
# scFv: DIQMTQSPSSLSASVGDRVTITCRASQDVNTAVAWYQQKPGKAPKLLIYSASFLYSGVPSRFSGSRSGTDFTLTISSLQPEDFATYYCQQYDRPITFGQGTKVEIKRTGGGSGGGGSGGGASEVQLVESGGGLVQPGGSLRLSCAASGFNIYYEAMHWVRQAPGKGLEWVAQIYPWNDYTYYADSVKGRFTISADTSKNTAYLQMNSLRAEDTAVYYCSRNYYAATMDYWGQGTLVTVSS
# Target: T1, RAS Q61WT[55-64] pHLA-A1 (human)
# T1 construct: also called Q61WT pHLA-A1; H/K/N RAS WT(55-64) peptide on HLA-A1
# Assay: flow cytometry: scFv phage supernatant on peptide-pulsed SigM5 cells (HLA-A1+), median fluorescence intensity
row,Binder,binding result
1,B1,no binding
2,B2,no binding
3,B3,no binding

# Target: T1, RAS Q61WT[55-64] pHLA-A1
# Assay: as above
# Remark: another data set of the same source
row,Binder,binding result
1,B4,no binding
2,B5,no binding
3,B6,no binding
4,B7,no binding
5,B8,no binding
6,B9,no binding
7,B10,no binding
8,B11,no binding

# Target: T1, RAS Q61WT[55-64] pHLA-A1
# Assay: as above
# Remark: another data set of the same source
row,Binder,binding result
1,B12,no binding
2,B13,no binding
3,B14,no binding
4,B15,no binding
5,B16,no binding
6,B17,no binding
7,B18,no binding
8,B19,no binding
9,B20,no binding
